Results on one molecule are retold here after paper PMC4113749 (Toxins, 2014).

In the assay the target is TcdA^(1–542 D285/287N)-EGFP (Clostridium difficile (strain VPI 10463), UniProt P16154 1-542). Put plainly: MST. Conditions: both partners purified.

B1: isolated TcdA CROPs (TcdA^1875–2710) (domain or fragment)
chain: YKIINGKHFYFNNDGVMQLGVFKGPDGFEYFAPANTQNNNIEGQAIVYQSKFLTLNGKKYYFDNNSKAVTGWRIINNEKYYFNPNNAIAAVGLQVIDNNKYYFNPDTAIISKGWQTVNGSRYYFDTDTAIAFNGYKTIDGKHFYFDSDCVVKIGVFSTSNGFEYFAPANTYNNNIEGQAIVYQSKFLTLNGKKYYFDNNSKAVTGLQTIDSKKYYFNTNTAEAATGWQTIDGKKYYFNTNTAEAATGWQTIDGKKYYFNTNTAIASTGYTIINGKHFYFNTDGIMQIGVFKGPNGFEYFAPANTDANNIEGQAILYQNEFLTLNGKKYYFGSDSKAVTGWRIINNKKYYFNPNNAIAAIHLCTINNDKYYFSYDGILQNGYITIERNNFYFDANNESKMVTGVFKGPNGFEYFAPANTHNNNIEGQAIVYQNKFLTLNGKKYYFDNDSKAVTGWQTIDGKKYYFNLNTAEAATGWQTIDGKKYYFNLNTAEAATGWQTIDGKKYYFNTNTFIASTGYTSINGKHFYFNTDGIMQIGVFKGPNGFEYFAPANTDANNIEGQAILYQNKFLTLNGKKYYFGSDSKAVTGLRTIDGKKYYFNTNTAVAVTGWQTINGKKYYFNTNTSIASTGYTIISGKHFYFNTDGIMQIGVFKGPDGFEYFAPANTDANNIEGQAIRYQNRFLYLHDNIYYFGNNSKAATGWVTIDGNRYYFEPNTAMGANGYKTIDNKNFYFRNGLPQIGVFKGSNGFEYFAPANTDANNIEGQAIRYQNRFLHLLGKIYYFGNNSKAVTGWQTINGKVYYFMPDTAMAAAGGLFEIDGVIYFFGVDGVKAPGIYG
Turning to B1, binding was put at a Kd of 2960 ± 180 nM.
